Assay [1] addresses vacant 70S ribosomes from E. coli MRE600 (E. coli). Put plainly: FRET; 25°C; 70S labelled at L23 with MDCC.
Assay [2] shares this target. The assay is described as follows: FRET; 4°C; 70S labelled at L23 with MDCC.
Assay [3] has as its target Lep75-RNC (ribosome-nascent-chain complex carrying 75 N-terminal amino acids of leader peptidase) (E. coli | , UniProt P00803 1-75, f[3H]Met at the N-terminus; nascent chain bound to tRNA). The assay is described as follows: 25°C.
The target in assay [4] is vacant 70S ribosomes from E. coli MRE600 (E. coli). The assay is described as follows: 25°C.

Numbering of substitutions follows the chain as printed.

B1: single-labelled SecYEG(Bpy) (complex)
chain 1: MAKQPGLDFQSAKGGLGELKRRLLFVIGALIVFRIGSFIPIPGIDAAVLAKLLEQQRGTIIEMFNMFSGGALSRASIFALGIMPYICASIIIQLLTVVHPTLAEIKKEGESGRRKISQYTRYGTLVLAIFQSIGIATGLPNMPGMQGLVINPGFAFYFTAVVSLVTGTMFLMWLGEQITERGIGNGISIIIFAGIVAGLPPAIAHTIEQARQGDLHFLVLLLVAVLVFAVTFFVVFVERGQRRIVVNYAKRQQGRRVYAAQSTHLPLKVNMAGVIPAIFASSIILFPATIASWFGGGTGWNWLTTISLYLQPGQPLYVLLYASAIIFFCFFYTALVFNPRETADNLKKSGAFVPGIRPGEQTAKYIDKVMTRLTLVGALYITFICLIPEFMRDAMKVPFYFGGTSLLIVVVVIMDFMAQVQTLMMSSQYESALKKANLKGYGR
chain 2: MSANTEAQGSGRGLEAMKWVVVVALLLVAIVGNYLYRDIMLPLRALAVVILIAAAGGVALLTTKGKATVAFAREARTEVRKVIWPTRQETLHTTLIVAAVTAVMSLILWGLDGILVRLVSFITGLRF
chain 3: MYEALLVVFLIVAIGLVGLIMLQQGKGADMGASFGAGASATLFGSSGSGNFMTRMTALLATLFFIISLVLGNINSNKTNKGSEWENLSAPAKTEQTQPAAPAKPTSDIPN
modifications: BODIPY FL (maleimide derivative) on Cys87
For orientation: Kd means the constant that tells how readily two partners part at equilibrium. A lower Kd goes with a tighter complex. As to B1, the values for the Kd in assay [1] and in assay [2] were 20 nM and 10 nM, respectively.

B2: double-labelled SecYEG(Bpy/Trp) (complex)
chain 1: B1 chain 1 with F286W
chain 2: B1 chain 2
chain 3: B1 chain 3
modifications: BODIPY FL (maleimide derivative) on Cys87
As to B2, the figures for the Kd in assay [3] and in assay [4] were 10 nM and 20 nM, respectively.

For the origin of these results see paper PMC4218953 (2014).
